Source: patent US20260008815A1, “CYCLIC PEPTIDE OR SALT THEREOF, AND USES THEREOF” (FUJIFILM Corporation, priority 2023, published 2026)
Numbered stars: 1 amine (or outer) side, 2 acyl side, 3 side chain; on linkers, the order of the positions; unused ones are H or OH. Bridge positions count the residues as written; N and C are the ends. Ends that are not written are not given here. acetyl = acetyl (haloacetyl before ring closure) on the side-chain amine, O=C(C[*:1])[*:2]; COCH2 = acetyl group that carries the bridge

Molecular target: T1, Recombinant Human FGFR2 alpha (IIIc) Fc Chimera Protein (Homo sapiens, UniProt P21802)
T1 construct: Fc (chimera); purchased R&D systems 712-FR-050
T1 sequence (P21802 with tags, fused parts or gaps limits assumed): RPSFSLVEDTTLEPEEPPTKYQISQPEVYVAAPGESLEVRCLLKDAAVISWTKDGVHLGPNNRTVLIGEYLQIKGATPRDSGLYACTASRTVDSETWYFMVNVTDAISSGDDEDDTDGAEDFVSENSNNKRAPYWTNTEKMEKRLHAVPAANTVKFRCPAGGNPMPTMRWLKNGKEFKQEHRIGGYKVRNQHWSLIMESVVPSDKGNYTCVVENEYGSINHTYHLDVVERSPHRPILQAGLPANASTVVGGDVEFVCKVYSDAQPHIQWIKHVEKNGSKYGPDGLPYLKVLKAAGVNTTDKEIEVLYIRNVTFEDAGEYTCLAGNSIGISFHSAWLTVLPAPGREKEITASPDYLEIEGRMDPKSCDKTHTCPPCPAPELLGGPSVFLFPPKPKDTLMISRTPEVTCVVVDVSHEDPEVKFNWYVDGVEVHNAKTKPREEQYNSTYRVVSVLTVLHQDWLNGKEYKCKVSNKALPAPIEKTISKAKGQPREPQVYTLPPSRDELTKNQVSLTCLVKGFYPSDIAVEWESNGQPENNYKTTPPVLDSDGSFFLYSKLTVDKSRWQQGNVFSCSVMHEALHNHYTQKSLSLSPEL
Test: ELISA binding affinity of enzymatically synthesized peptide to FGFR
Settings: ELISA luminescence signal at 10 nmol/L peptide, SEQ ID NO: 47 at 10 nmol/L standardized to 1; enzyme synthesis product
Summary of the method: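 FGFR2 alpha (IIIc) Fc chimera (5 ng/well) was immobilized, and Myc-tagged peptide was bound 3 h at room temperature, then detected with anti-Myc antibody (2 h) and chemiluminescent substrate. Signal was corrected against FGFR-free wells. Score A–D was the luminescence at 10 nmol/L peptide, normalized to cyclic peptide SEQ ID NO: 47.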

## 396 (YCEENYLDPEQHQYFIYFK(COCH2)R; thioether 2-19 (inferred)) [compound 396]
  Evaluation result of binding affinity to FGFR: B (0.5 or more and less than 0.7)

## 397 (YCEENYLDPEQHQYFIYFK(COCH2)H; thioether 2-19 (inferred)) [compound 397]
  Evaluation result of binding affinity to FGFR: A (0.7 or more)

## 398 (YCHENYLDPEQHQYFIYFK(COCH2)R; thioether 2-19 (inferred)) [compound 398]
  Evaluation result of binding affinity to FGFR: B (0.5 or more and less than 0.7)

## 399 (QK(COCH2)PQNFINPVQWRYFQHYCN; thioether 2-19 (inferred)) [compound 399]
  Evaluation result of binding affinity to FGFR: C (0.1 or more and less than 0.5)

## 400 (VCQQDNYFYPQQWFFFVHYK(COCH2)H; thioether 2-20 (inferred)) [compound 400]
  Evaluation result of binding affinity to FGFR: A (0.7 or more)

## 401 (QCQFLNYVNHVQWHYFWVFK(COCH2)S; thioether 2-20 (inferred)) [compound 401]
  Evaluation result of binding affinity to FGFR: C (0.1 or more and less than 0.5)

## 402 (PCEVYNYWYPTQWFFFTQFK(COCH2)K; thioether 2-20 (inferred)) [compound 402]
  Evaluation result of binding affinity to FGFR: A (0.7 or more)

## 403 (ACRRANWIHPIQWFFFHVYK(COCH2)H; thioether 2-20 (inferred)) [compound 403]
  Evaluation result of binding affinity to FGFR: B (0.5 or more and less than 0.7)

## 404 (DCIRPYDQLQLIYQYLYQLK(COCH2)K; thioether 2-20 (inferred)) [compound 404]
  Evaluation result of binding affinity to FGFR: C (0.1 or more and less than 0.5)

## 405 (QCLTQRVYLRQLAYYRLYRK(COCH2)I; thioether 2-20 (inferred)) [compound 405]
  Evaluation result of binding affinity to FGFR: C (0.1 or more and less than 0.5)

## 406 (PCEQQNFHSVIQWHFFAQYK(COCH2)N; thioether 2-20 (inferred)) [compound 406]
  Evaluation result of binding affinity to FGFR: A (0.7 or more)

## 407 (LCVQGNYQNPTQWYYFQLYK(COCH2)W; thioether 2-20 (inferred)) [compound 407]
  Evaluation result of binding affinity to FGFR: B (0.5 or more and less than 0.7)

## 408 (HCSQHQTTYYQIYAYLHAIK(COCH2)I; thioether 2-20 (inferred)) [compound 408]
  Evaluation result of binding affinity to FGFR: C (0.1 or more and less than 0.5)

## 409 (LCNNWENYFDWLQWSYYIAYK(COCH2)E; thioether 2-21 (inferred)) [compound 409]
  Evaluation result of binding affinity to FGFR: A (0.7 or more)

## 410 (WCQESSNYLAPLQWYFFNWYK(COCH2)T; thioether 2-21 (inferred)) [compound 410]
  Evaluation result of binding affinity to FGFR: A (0.7 or more)

## 411 (TCVDKDNWYNHVQWQYFFLYK(COCH2)Q; thioether 2-21 (inferred)) [compound 411]
  Evaluation result of binding affinity to FGFR: A (0.7 or more)

## 412 (QCEYALQYYRFYVAQRHWVDKL; Description of Artificial Sequence: Cyclic peptide) [compound 412]
  Evaluation result of binding affinity to FGFR: C (0.1 or more and less than 0.5)

## 413 (QCDQDAIQWVYDLQYYRVWHKV; Description of Artificial Sequence: Cyclic peptide) [compound 413]
  Evaluation result of binding affinity to FGFR: C (0.1 or more and less than 0.5)

## 414 (YCNYEWDGARRQIAYYRIFLKL; Description of Artificial Sequence: Cyclic peptide) [compound 414]
  Evaluation result of binding affinity to FGFR: C (0.1 or more and less than 0.5)

## 415 (YCDWVEVANARQLAYYTLYRKK; Description of Artificial Sequence: Cyclic peptide) [compound 415]
  Evaluation result of binding affinity to FGFR: C (0.1 or more and less than 0.5)

## 416 (LCTQFPASQRYYFALYRLWHKS; Description of Artificial Sequence: Cyclic peptide) [compound 416]
  Evaluation result of binding affinity to FGFR: C (0.1 or more and less than 0.5)

## 417 (LCQIYLYLTALQQGFEDFYPK(COCH2)N; thioether 2-21 via acetyl) [compound 417]
  Evaluation result of binding affinity to FGFR: C (0.1 or more and less than 0.5)

## 418 (DCLRQQVYQYLYILFQNDIAK(COCH2)D; thioether 2-21 via acetyl) [compound 418]
  Evaluation result of binding affinity to FGFR: C (0.1 or more and less than 0.5)

## 419 (DCHTREDWQIHHLYQLLYQLK(COCH2)Y; thioether 2-21 via acetyl) [compound 419]
  Evaluation result of binding affinity to FGFR: C (0.1 or more and less than 0.5)

## 420 (YCEAQPYYFQLYRLWHRQEK(COCH2)P; thioether 2-20 via acetyl) [compound 420]
  Evaluation result of binding affinity to FGFR: C (0.1 or more and less than 0.5)

## 421 (VCLDEQQALFHQYYRITRRK(COCH2)V; thioether 2-20 via acetyl) [compound 421]
  Evaluation result of binding affinity to FGFR: C (0.1 or more and less than 0.5)

## 422 (YCTQEQAFRQLAYYQIFRRSK(COCH2)S; thioether 2-21 via acetyl) [compound 422]
  Evaluation result of binding affinity to FGFR: C (0.1 or more and less than 0.5)

## 423 (WCFTEGIQSTVQLTYSYLYK(COCH2)L; thioether 2-20 via acetyl) [compound 423]
  Evaluation result of binding affinity to FGFR: C (0.1 or more and less than 0.5)

## 424 (VCTQPQQDFELIYQYLYQLAK(COCH2)Q; thioether 2-21 via acetyl) [compound 424]
  Evaluation result of binding affinity to FGFR: C (0.1 or more and less than 0.5)

## 425 (GCGYTQLHYQHLFAWLHARK(COCH2)V; thioether 2-20 via acetyl) [compound 425]
  Evaluation result of binding affinity to FGFR: C (0.1 or more and less than 0.5)

## 426 (PCDPLNLQQWYTAVYQLWHK(COCH2)R; thioether 2-20 via acetyl) [compound 426]
  Evaluation result of binding affinity to FGFR: C (0.1 or more and less than 0.5)

## 427 (ECDTADYPQEWIQDVYQYLYK(COCH2)R; thioether 2-21 via acetyl) [compound 427]
  Evaluation result of binding affinity to FGFR: C (0.1 or more and less than 0.5)

## 428 (ECDQAQQVYALIYRYLYQLQK(COCH2)V; thioether 2-21 via acetyl) [compound 428]
  Evaluation result of binding affinity to FGFR: C (0.1 or more and less than 0.5)

## 429 (YCHENYLDPEQYQYFHYFK(COCH2); thioether 2-19 via acetyl) [compound 429]
  Evaluation result of binding affinity to FGFR: C (0.1 or more and less than 0.5)

## 430 (CHENYLDPEQYQYFHYFK(COCH2)Y; thioether 1-18 via acetyl) [compound 430]
  Evaluation result of binding affinity to FGFR: A (0.7 or more)

## 431 (CHENYLDPEQYQYFHYFK(COCH2); thioether 1-18 via acetyl) [compound 431]
  Evaluation result of binding affinity to FGFR: C (0.1 or more and less than 0.5)

## 432 (CENYLDPEQYQYFHYFK(COCH2)Y; thioether 1-17 via acetyl) [compound 432]
  Evaluation result of binding affinity to FGFR: C (0.1 or more and less than 0.5)
